In publication PMC6751199, “A synthetic metabolic network for physicochemical homeostasis” (Nature Communications, 2019):

Tests used:
[1] = target: T1, ArcD2 (arginine/ornithine antiporter) (Lactococcus lactis, UniProt Q9CE19); experiment: […]-arginine uptake in ArcD2 proteoliposomes loaded with citrulline; assay type: biochemical; conditions: 50 mM KPi pH 7.0, 30 °C; counter-substrate 10 µM 14C-arginine outside; 1 or 10 mM citrulline inside; electrogenic
T1 construct: full length, cleavable C-terminal 10His tag (cleavage not described), expressed in L. lactis JP9000 (arcD1D2 deleted), purified in DDM, reconstituted in DOPE/DOPC/DOPG vesicles
T1 sequence (Q9CE19 1-497): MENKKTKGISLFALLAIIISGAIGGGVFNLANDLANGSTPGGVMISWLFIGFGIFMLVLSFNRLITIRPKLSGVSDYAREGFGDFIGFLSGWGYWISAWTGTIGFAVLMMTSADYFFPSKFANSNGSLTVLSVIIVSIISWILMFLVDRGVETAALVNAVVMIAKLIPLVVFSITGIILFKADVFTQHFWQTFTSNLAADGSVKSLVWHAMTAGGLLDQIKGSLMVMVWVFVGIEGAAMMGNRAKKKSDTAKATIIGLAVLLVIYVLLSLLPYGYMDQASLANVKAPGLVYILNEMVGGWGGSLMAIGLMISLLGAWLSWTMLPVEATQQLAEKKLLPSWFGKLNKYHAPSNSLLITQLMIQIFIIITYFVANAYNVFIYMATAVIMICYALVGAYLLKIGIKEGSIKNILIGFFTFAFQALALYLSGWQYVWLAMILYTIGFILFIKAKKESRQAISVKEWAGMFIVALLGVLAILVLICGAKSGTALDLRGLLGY

[2] = target: T1, ArcD2 (arginine/ornithine antiporter); experiment: […]-arginine uptake in ArcD2 proteoliposomes; assay type: biochemical; conditions: 50 mM KPi pH 7.0, 30 °C; 10 µM arginine outside, counter-substrate L-ornithine inside; labelled compound
[3] = target: T2, OpuA (ATP-driven glycine betaine transporter) (Lactococcus lactis, UniProt Q9RQ05); experiment: […]-glycine betaine uptake in OpuA/ArcD2 vesicles; assay type: biochemical; conditions: 100 mM KPi pH 7.0, 250 mM KCl, 30 °C; ATP regenerated inside from arginine; 18 µM glycine betaine; labelled compound
T2 construct: gene busAB; ABC transporter complex purified by Ni-Sepharose in DDM (tag not described here), expressed in L. lactis, co-reconstituted with ArcD2 in lipid vesicles
T2 sequence (Q9RQ05 1-573): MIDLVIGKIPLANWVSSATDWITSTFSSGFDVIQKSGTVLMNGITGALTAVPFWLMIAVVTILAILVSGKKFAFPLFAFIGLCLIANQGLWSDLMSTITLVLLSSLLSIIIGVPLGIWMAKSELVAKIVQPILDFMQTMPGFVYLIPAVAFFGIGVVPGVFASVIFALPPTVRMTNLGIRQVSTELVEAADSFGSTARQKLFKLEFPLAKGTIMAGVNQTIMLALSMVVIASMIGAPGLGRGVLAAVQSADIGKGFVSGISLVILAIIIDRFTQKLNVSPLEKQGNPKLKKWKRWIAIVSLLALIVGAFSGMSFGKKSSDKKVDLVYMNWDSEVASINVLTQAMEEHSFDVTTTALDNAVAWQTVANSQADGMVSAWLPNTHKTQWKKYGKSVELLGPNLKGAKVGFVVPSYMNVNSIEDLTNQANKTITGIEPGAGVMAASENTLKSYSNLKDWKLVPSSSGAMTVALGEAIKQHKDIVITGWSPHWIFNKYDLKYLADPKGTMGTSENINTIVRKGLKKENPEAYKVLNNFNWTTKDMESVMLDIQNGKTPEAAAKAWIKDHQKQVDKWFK
T2 sequence (Q9RQ06 1-407 partner): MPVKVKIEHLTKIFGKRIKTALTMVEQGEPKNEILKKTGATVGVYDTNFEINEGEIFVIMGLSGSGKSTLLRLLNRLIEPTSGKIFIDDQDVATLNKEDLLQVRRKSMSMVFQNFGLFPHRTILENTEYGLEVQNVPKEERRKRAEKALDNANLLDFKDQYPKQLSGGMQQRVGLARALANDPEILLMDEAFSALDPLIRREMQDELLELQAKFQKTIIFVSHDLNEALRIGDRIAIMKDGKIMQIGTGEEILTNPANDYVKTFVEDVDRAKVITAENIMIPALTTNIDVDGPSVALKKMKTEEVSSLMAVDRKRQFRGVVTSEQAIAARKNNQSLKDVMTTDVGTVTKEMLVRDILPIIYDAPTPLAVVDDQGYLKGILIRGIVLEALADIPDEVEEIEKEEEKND

purified protein [4] = substrate: N=C(N)NCCC[C@H](N)C(=O)O; experiment: purified protein; assay type: biochemical, Lactococcus lactis; conditions: 50 mM KPi pH 7.0, 30 °C, 0-480 µM L-arginine
purified protein [5] = substrate: NCCC[C@H](N)C(=O)O; experiment: purified protein; conditions: 50 mM KPi pH 7.0, 30 °C, excess carbamoyl-phosphate, back reaction (citrulline formation)
purified protein [6] = substrate: NC(=O)OP(=O)(O)O; experiment: purified protein; assay type: biochemical, Lactococcus lactis; conditions: 50 mM KPi pH 7.0, 30 °C, excess L-ornithine, back reaction (citrulline formation)
[7] = substrate: Nc1ncnc2c1ncn2[C@@H]1O[C@H](COP(=O)(O)OP(=O)(O)O)[C@@H](O)[C@H]1O; experiment: ATP/ADP ratio by PercevalHR fluorescence, pH-corrected with pyranine; assay type: biochemical, Lactococcus lactis; conditions: 50 mM KPi pH 7.0, 5 mM MgSO4, 30 °C, excess carbamoyl-phosphate
[8] = substrate: NC(=O)OP(=O)(O)O; experiment: as above; assay type: biochemical, Lactococcus lactis; conditions: 50 mM KPi pH 7.0, 5 mM MgSO4, 30 °C, excess ADP

NC(=O)NCCC[C@H](N)C(=O)O [L-citrulline]
14C-arginine uptake in ArcD2 proteoliposomes loaded with citrulline [1]: ArcD2 exchanges arginine for citrulline, albeit at a much lower rate

N=C(N)NCCC[C@H](N)C(=O)O [L-arginine]
14C-arginine uptake in ArcD2 proteoliposomes [2]: demonstrated exchange of arginine for ornithine

C[N+](C)(C)CC(=O)[O-] [glycine betaine]
14C-glycine betaine uptake in OpuA/ArcD2 vesicles [3]: OpuA is constitutively active and imports glycine betaine at the expense of ATP

B1: ArcA (arginine deiminase) (Lactococcus lactis subsp. lactis Il1403) (protein)
chain: MNNGINVNSEIGKLKSVLLHRPGAEVENITPDTMKQLLFDDIPYLKIAQKEHDFFAQTLRDNGAETVYIENLATEVFEKSSETKEEFLSHLLHEAGYRPGRTYDGLTEYLTSMSTKDMVEKIYAGVRKNELDIKRTALSDMAGSDAENYFYLNPLPNAYFTRDPQASMGVGMTINKMTFPARQPESLITEYVMANHPRFKDTPIWRDRNHTTRIEGGDELILNKTTVAIGVSERTSSKTIQNLAKELFANPLSTFDTVLAVEIPHNHAMMHLDTVFTMINHDQFTVFPGIMDGAGNINVFILRPGKDDEVEIEHLTDLKAALKKVLNLSELDLIECGAGDPIAAPREQWNDGSNTLAIAPGEIVTYDRNYVTVELLKEHGIKVHEILSSELGRGRGGARCMSQPLWREDL
notes: full length, cleavable N-terminal 6His tag (cleavage not described), expressed from pNZarcA in L. lactis NZ9000, Ni-Sepharose and Superdex 200
Km (purified protein [4]): 26.5 µM | kcat (purified protein [4]): 12 s⁻¹

B2: ArcB (ornithine transcarbamoylase) (Lactococcus lactis subsp. lactis Il1403) (protein)
chain: MTSPLITKAEVNSVFQGRSLLAEKDFTPAEINYLVDFGLHLKALKQQNIPHHYLEGKNIALLFAKTSTRTRAAFTTAAIDLGAHPEYLGANDIQLGIKESTEDTARVLGSMFDAIERRGFSQKEVEDLAKYSGVPVWNGLTDDWHPTQMIADFMTVKENFGHLKGLTLVYVGDGRNNMANSLIVTGSMLGVNVHIVAPDSLHPTKEVMDIANKFAEKSGAKPLATSNIEEGVKGANIIYSDVWVSMGESNWEERVKLLTPYRITMDMLKMTGNADNGQLIFMHCLPAFHDTETEYGKEIKEKYGLTEMEVTDEVFRSKYARQFEEAENRMHSIKAIMAATLGNLFIPAVPEDFK
notes: full length, cleavable N-terminal 6His tag (cleavage not described), expressed from pNZarcB in L. lactis NZ9000, Ni-Sepharose and Superdex 200
Km (purified protein [5]): 700 µM | kcat (purified protein [5]): 2300 s⁻¹ | Km (purified protein [6]): 1900 µM | kcat (purified protein [6]): 2900 s⁻¹

B3: ArcC1 (carbamate kinase) (Lactococcus lactis subsp. lactis Il1403) (protein)
chain: MVKRIVVALGGNAILSKDPSAKAQKEALEVTAEQLMPLIKDNDRQMVVTHGNGPQVGNLLLQQLGSDSEKNPAMPLDTVGAMTQGEIGFWTVQAFTRAMANNGLEHYPVISAVTQTLVDENDPAFKNASKPIGPFYTEEQLPEIKKQFPDWELMEDAGRGYRRVVPSPKPLEIIEAKAFGPILESGSLLIASGGGGIPVIKDGKGYQGVEAVIDKDFSAAKLAEMVGADELLILTSGGDVYLNYGKENQVHLETVKVSEMRKYVDEERFAKGSMGPKVEAAVSFVERTGKTATITSLDNVENFVKSGSGTRIVP
notes: full length, cleavable N-terminal 10His tag (cleavage not described), expressed from pNZarcC1 in L. lactis NZ9000, Ni-Sepharose and Superdex 200
Km [7]: 1000 µM | kcat [7]: 310 s⁻¹ | Km [8]: 700 µM | kcat [8]: 420 s⁻¹
